From patent publication US20070259805A1

These substances were tested against MITF-M expressed in HEK293 cells from the pCI mammalian expression vector (human) (UniProt O75030) (assay: cell-based or functional assay).
Chain of UniProt O75030 (O75030 other isoform, or with tags, fused parts or gaps limits assumed): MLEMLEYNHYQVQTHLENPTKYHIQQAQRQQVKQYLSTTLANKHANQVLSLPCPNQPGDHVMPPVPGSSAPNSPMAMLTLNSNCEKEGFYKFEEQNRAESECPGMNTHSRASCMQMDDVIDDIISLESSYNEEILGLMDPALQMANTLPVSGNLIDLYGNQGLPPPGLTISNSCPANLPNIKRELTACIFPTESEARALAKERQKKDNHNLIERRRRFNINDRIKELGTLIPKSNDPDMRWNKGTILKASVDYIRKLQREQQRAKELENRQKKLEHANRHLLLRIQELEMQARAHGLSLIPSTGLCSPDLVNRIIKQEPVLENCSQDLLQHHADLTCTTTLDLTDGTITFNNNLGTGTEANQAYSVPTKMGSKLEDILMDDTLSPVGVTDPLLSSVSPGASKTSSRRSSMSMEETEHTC

luciferase activity (firefly/renilla) in a reporter assay using BCL2 gene promoter, HEK293 cells, against cells transfected only with the MITF-M gene expression plasmid | Substance
1.8 fold | carboxy-terminal FLAG-tagged HLF protein expressed in HEK293 cells from pCI (from UniProt Q16534 1-295)
1.4 fold | carboxy-terminal FLAG-tagged ELK4 protein expressed in HEK293 cells from pCI (from UniProt P28324 1-372)
1.5 fold | CLOCK expressed in HEK293 cells from the pCI mammalian cell expression vector (from UniProt O15516 1-846)
